From publication PMC4731217, “Mutations in Mtr4 Structural Domains Reveal Their Important Role in Regulating tRNAiMet Turnover in Saccharomyces cerevisiae and Mtr4p Enzymatic Activities In Vitro”

Legend:
Mtr4p-K700N = molecular target: T1, Mtr4p-K700N (Saccharomyces cerevisiae, UniProt P47047 1-1073, K700N); assay: EMSA; no ATP or Mg2+ listed; 1 mM EDTA; EMSA: 0.5 nM RNA, 10 mM Tris pH 7.5, 1 mM EDTA, 100 mM KCl, 0.1 mM DTT, 5% glycerol, 1% NP40, on ice 30 min; 5% native PAGE at 4 C; conditions: protein: recombinant; tags: His (His60 Ni purification); label: 5' 32P on R4 (top strand); 16 bp duplex, 3' overhang 6 nt on R1
T1 sequence: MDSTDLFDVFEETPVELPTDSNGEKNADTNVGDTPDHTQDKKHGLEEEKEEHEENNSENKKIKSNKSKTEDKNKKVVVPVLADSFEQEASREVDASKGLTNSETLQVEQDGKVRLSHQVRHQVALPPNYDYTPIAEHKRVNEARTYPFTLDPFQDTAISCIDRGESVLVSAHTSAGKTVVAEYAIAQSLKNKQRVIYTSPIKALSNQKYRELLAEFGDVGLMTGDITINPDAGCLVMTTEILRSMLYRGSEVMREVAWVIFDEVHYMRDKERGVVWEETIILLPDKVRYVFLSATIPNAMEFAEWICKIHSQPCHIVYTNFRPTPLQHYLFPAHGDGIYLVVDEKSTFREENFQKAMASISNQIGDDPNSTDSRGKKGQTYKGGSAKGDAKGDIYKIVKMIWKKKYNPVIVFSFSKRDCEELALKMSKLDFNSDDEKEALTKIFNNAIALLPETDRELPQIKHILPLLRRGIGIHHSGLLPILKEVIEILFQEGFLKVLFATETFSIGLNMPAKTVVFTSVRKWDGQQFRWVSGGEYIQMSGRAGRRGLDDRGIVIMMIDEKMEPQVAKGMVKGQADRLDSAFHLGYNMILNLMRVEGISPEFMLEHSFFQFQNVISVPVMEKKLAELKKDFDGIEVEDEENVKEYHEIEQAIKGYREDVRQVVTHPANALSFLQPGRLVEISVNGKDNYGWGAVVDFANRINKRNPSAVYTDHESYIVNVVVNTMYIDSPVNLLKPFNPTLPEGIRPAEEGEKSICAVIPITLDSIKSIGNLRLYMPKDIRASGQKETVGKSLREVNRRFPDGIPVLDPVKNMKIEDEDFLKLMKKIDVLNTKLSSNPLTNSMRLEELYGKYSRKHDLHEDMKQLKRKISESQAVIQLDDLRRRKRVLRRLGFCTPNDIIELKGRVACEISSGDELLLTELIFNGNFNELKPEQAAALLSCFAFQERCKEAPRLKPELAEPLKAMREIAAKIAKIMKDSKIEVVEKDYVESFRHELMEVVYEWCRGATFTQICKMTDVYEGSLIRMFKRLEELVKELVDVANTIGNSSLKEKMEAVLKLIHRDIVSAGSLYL

Mtr4p-P731S = molecular target: T2, Mtr4p-P731S (Saccharomyces cerevisiae, UniProt P47047 1-1073, P731S); assay: as above; conditions: protein: recombinant; tags: His (His60 Ni purification); label: 5' 32P on R4 (top strand); 16 bp duplex, 3' overhang 6 nt on R1
T2 sequence: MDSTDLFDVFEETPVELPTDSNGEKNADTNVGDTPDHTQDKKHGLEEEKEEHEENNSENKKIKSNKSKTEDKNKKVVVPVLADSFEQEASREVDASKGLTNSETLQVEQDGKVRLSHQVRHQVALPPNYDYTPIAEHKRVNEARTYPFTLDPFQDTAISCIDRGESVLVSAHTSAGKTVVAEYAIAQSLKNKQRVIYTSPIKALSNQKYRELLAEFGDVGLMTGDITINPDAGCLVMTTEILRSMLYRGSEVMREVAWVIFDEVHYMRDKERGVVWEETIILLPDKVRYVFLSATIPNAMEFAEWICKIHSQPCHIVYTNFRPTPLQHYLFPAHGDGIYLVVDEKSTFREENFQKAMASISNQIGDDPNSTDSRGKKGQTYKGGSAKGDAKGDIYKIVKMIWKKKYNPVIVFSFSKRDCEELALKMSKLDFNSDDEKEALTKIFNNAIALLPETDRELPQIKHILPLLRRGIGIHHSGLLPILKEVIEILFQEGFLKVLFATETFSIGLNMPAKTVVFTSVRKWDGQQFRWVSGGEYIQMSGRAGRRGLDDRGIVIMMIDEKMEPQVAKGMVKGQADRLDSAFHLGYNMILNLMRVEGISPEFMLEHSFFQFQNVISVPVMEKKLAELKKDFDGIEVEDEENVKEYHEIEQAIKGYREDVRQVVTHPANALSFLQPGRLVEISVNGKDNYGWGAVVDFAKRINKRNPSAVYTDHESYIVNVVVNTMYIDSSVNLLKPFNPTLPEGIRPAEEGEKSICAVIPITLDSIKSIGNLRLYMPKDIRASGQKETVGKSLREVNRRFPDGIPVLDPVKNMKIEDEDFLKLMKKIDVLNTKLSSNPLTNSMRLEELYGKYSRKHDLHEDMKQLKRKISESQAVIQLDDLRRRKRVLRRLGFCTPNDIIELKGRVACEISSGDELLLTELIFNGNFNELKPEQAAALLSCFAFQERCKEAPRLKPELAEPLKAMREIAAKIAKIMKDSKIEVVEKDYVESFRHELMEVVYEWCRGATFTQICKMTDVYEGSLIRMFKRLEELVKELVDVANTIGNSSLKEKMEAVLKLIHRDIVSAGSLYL

B1: R1-4 RNA duplex (R4 top / R1 bottom) (dsRNA)
RNA 1: AGCACCGUAAAGACGC
RNA 2: GCGUCUUUACGGUGCUAGCUUA
Mtr4p-K700N
  binding signal: < 50 % of wild-type complex
Mtr4p-P731S
  binding signal: ~50 % of wild-type complex
